Experimental findings from patent publication US20170267766A1 (PIERRE FABRE MEDICAMENT, published 2017) are described below.

Usually EC50 stands for the concentration needed to bring the measured effect to its halfway point. The Kd is the free concentration of one partner at which half of the binding sites on the other are occupied at equilibrium, for simple one-to-one binding.

For assay [1], the target named is T1, human IGF-1R (native, on cells) (human, UniProt P08069 31-1367).
T1 construct: also called hIGF-1R; native IGF-1R on MCF-7 cells
Nature of the assay: FACS titration, hIGF-1R transfected cells. The protocol:
Briefly, increasing concentrations of chimeric mAbs were incubated with cells for 20 min at 4° C. in FACS buffer (PBS, 0.1% BSA, 0.01% NaN₃). Cells were then washed 3 times and incubated with the appropriate secondary antibody coupled with Alexa 488 before being incubated for 20 additional minutes at 4° C. in the dark and then washed 3 times in FACS buffer. The binding of anti-IGF-1R antibodies was immediately performed on viable cells which were identified using propidium iodide (that stains dead cells). The binding EC₅₀ expressed in molarity (M) was calculated using a nonlinear regression analysis (GraphPad Prims 4.0).

Assay [2] deals with T1, human IGF-1R (native, on cells). Nature of the assay: FACS on MCF-7 cells, 4°C; inset table, axis log [M]. As to the method: (§1) The binding properties of a series of anti-IGF-1R antibodies were evaluated by FACS analyses on the human MCF-7 breast adenocarcinoma cell line (ATCC#HTB-22) using increasing antibody concentrations. For that purpose, cells (1×10⁶ cells/ml) were incubated with anti-IGF-1R antibodies for 20 min. at 4° C. in FACS buffer (PBS, 0.1% BSA, 0.01% NaN₃). They were then washed 3 times and incubated with the appropriate secondary antibody coupled with Alexa 488 for 20 additional minutes at 4° C. in the dark before being washed 3 times in FACS buffer. The binding of anti-IGF-1R antibodies was immediately performed on viable cells which were identified using propidium iodide (that stains dead cells). The maximum of signal intensity obtained with each antibody was designed as Bₘₐₓ and expressed in mean of fluorescence intensity (MFI). The EC₅₀ of binding expressed in molarity (M) was calculated using a nonlinear regression analysis (GraphPad Prims 4.0).

Assay [3] shares this target. Nature of the assay: cell-based or functional assay.
For assay [4] the target is unchanged. Nature of the assay: cell-based or functional assay. The source holds these as a separate data set.
The target in assay [5] is T2, chimerical h/m IGF-1R construct C2 (human/mouse chimera, UniProt Q60751 31-937 (mouse entry)).
T2 construct: soluble form, supernatant
Kind of assay: SPR (Biacore X100), ratio of IGF-1R binding level to c208F2 capture level, supernatants diluted 10 times.

Assay [6] concerns the target T3, chimerical h/m IGF-1R construct C7 (human/mouse chimera, UniProt P08069 31-932, limits assumed).
T3 construct: 17 mouse specific residues
The assay is described as above.

Assay [7] concerns the target T4, monkey IGF-1R (on COS-7 cells) (African green monkey).
T4 construct: whole, on cells
Nature of the assay: FACS on COS-7 cells, 4°C; inset table, axis log [M]. The protocol:
In order to evaluate the binding of anti-IGF-1R antibodies on monkey IGF-1R, the binding of both murine and chimeric anti-hIGF-1R antibodies was evaluated by FACS analyses on COS-7 cell line using increasing antibody concentrations. Cells (1×10⁶ cells/ml) were incubated with anti-IGF-1R antibodies for 20 minutes at 4° C. in FACS buffer (PBS, 0.1% BSA, 0.01% NaN₃). Then, cells were washed 3 times and incubated with the appropriate secondary antibody coupled with Alexa 488 before being incubated for 20 additional minutes at 4° C. in the dark and finally washed 3 times in FACS buffer. The binding of anti-IGF-1R antibodies was immediately evaluated on viable cells identified using propidium iodide (that stains dead cells). The binding EC₅₀ expressed in molarity (M) was calculated using a nonlinear regression analysis (GraphPad Prims 4.0).

The target in assay [8] is T5, soluble recombinant Cynomolgus monkey IGF-1R with C-terminal 10-His tag (produced in house) (Cynomolgus monkey).
T5 construct: extracellular domain; also called Cynomolgus IGF-1R ECD; Macaca IGF-1R
Nature of the assay: SPR, common fit of the human and cynomolgus sensorgrams. As to the method:
(§2) The recognition experiments were run on a Biacore X100 device using a CM5 sensor chip activated by an anti-Tag His antibody (His capture kit GE Healthcare catalogue number 28-9950-56). More than 11000 RU of antibodies are chemically grafted on the carboxymethyldextan matrix using the amine kit chemistry. The experiments were carried out at 25° C. with a flow rate of 30 μl/min using the HBS-EP buffer (GE Healthcare) as the running and sample dilution buffer.
(§3) Solution of a second antibody is either injected in the same conditions on both flowcells or only on the second flowcell. […] At the end of the fifth injection the running buffer was passed in order to define the dissociation rate. The surface was then regenerated with an injection of a 10 mM Glycine, HCl pH 1.5 buffer during 30s.
(§4) The resulting sensorgrams were analysed using the Biaevaluation software with a 1:1 model. […] The quality of the fitting was assessed by a Chi2/Rmax ratio lower than 0.05 RU.
In general terms: In SPR one partner is held on a chip, and binding of the other changes the refractive index at the surface.

Assay [9] deals with T4, monkey IGF-1R (on COS-7 cells). Kind of assay: cell-based or functional assay.
The target in assay [10] is T5, soluble recombinant Cynomolgus monkey …. Nature of the assay: SPR Biacore X100, single cycle kinetics, His-captured IGF-1R ~160 RU, 1:1 model. The protocol:
as §2, §3, §4

In assay [11] the target is T1, human IGF-1R (native, on cells). Kind of assay: FACS titration, MCF-7. The protocol: as §1

T2 sequence (Q60751 other isoform, or with tags, fused parts or gaps mutant limits assumed): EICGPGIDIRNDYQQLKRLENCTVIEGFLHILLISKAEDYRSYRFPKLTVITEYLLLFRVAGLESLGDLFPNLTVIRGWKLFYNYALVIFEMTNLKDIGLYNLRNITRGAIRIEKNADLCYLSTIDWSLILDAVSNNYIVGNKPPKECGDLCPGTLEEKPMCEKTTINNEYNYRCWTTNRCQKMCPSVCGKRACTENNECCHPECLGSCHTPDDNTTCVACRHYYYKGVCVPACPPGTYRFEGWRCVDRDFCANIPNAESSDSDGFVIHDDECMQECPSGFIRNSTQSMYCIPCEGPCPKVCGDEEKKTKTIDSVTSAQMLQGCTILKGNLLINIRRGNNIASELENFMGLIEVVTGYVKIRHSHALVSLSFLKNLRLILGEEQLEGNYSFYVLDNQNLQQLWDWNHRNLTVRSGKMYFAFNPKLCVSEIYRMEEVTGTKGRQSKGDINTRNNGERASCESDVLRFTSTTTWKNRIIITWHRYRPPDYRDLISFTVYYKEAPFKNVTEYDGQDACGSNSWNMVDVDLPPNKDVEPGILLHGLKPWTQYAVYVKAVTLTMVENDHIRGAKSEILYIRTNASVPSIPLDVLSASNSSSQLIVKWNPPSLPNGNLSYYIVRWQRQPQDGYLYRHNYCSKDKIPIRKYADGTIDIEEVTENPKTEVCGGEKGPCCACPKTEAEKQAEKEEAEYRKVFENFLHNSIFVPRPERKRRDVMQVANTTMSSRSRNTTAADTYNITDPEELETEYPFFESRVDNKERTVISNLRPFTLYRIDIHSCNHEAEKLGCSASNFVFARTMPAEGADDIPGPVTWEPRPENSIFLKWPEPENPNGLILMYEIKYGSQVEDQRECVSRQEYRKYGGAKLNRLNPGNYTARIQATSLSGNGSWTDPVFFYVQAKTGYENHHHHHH

B1: c208F2 (antibody, human IgG1, kappa, V domains shown)
VH: QVQLQQSGPELVKPGASVKMSCKASGYTFTSYYIYWVKQRPGQGLEWLGWIWPGDGSTKYNEKFKDKTTLTADKSSNTAYMFLSSLTSEDSAVYFCASPMITPNYAMDYWGQGASVTVSS
VL: DIQMTQTTSSLSASLGDRVTISCRASQDISKYLNWYQQQPDGTIKLLIYYTSRLHSGVPSRFSGRGSGTDYSLTISNVEQEDIATYFCQQGSTLPYTFGGGTKLEIKR
notes: group G2; also called chimeric 208F2
For the molecule B1, the Bmax in [1] was 2010 MFI; in [11], 981 MFI. Also, the EC50 in assay [1] came to 320 pM; in assay [2], 532 pM; in assay [7], 657 pM; in assay [11], 670 pM. Also, the “hIGF-1R phosphorylation, % of that induced by IGF-1 (MCF-7, Ab 10 µg/ml)” value in [3] is under 20%. The “% Internalization (MCF-7, 10 µg/ml, 4 h)” value in assay [4] is 83%. The ΔMFI amounted to 288 MFI in assay [4] and 52 MFI in assay [9]. Further, the binding result in assay [5] is recorded as “no binding”; in [6] it was “binds”. The values for the dissociation constant (Kd) in assay [8] and in [10] were 220 pM and 170 pM, respectively. Further, in assay [9], the “% internalisation” value worked out at 67%.
